Assays:
LNCaP/Vector cells = assay: BrdU incorporation cell proliferation assay, LNCaP/Vector; format: cell-based; conditions: Dox 4 μg/ml, 24 hr
Description: For in vitro kinase assay, the recombinant, pre-activated MST1 protein kinase was incubated with purified GST-AR DBD/HR fusion protein and 10 μCi ^32P-γ-ATP or 100 μM unlabeled-ATP. The reaction mixture was resolved on SDS-PAGE and autoradiographed. Cell-Death ELISA and BrdU incorporation assays were performed to assess cell death and cell proliferation, respectively, according to the manufacturer's instructions (Roche Molecular Diagnostics).

[1] = system: C4-2/HA-MST1 tumor xenografts; assay: Subcutaneous prostate cancer xenograft in athymic nude mice; format: in vivo
Description: C4-2/Vector or C4-2/HA-MST1 cells mixed with Matrigel (1-to-1 ratio) were inoculated subcutaneously in athymic nude mice (CD-1 nu/nu; Charles River Laboratories, Wilmington, Mass.). 1×10^6 cells/100 μl were used per injection per site (right and left flanks). Mice were treated with Dox (0.5 mg/ml) in drinking water to induce MST1 expression for 12 weeks. Institutional Animal Care and Use Committee (IACUC) policies and guidelines were strictly applied. Tumor volumes were assessed by caliper according to procedures described previously (20). Mice were sacrificed and evaluated for tumor growth anatomically and tumor tissues extracted from mice were fixed in 10% formaldehyde for the construction of histological sections or “snap” frozen at −80° C. The expression of MST1 was verified in histological sections by immunohistochemistry using anti-HA antibody.

[2] = C4-2/HA-MST1 vs C4-2/Vector, Dox in drinking water, 12 weeks

Molecule	effect on cell growth (LNCaP/Vector cells)	mice that developed tumors ([1]; 12 weeks after subcutaneous inoculation, 10 mice per group)	suppression of tumor growth [1, 2] [fold]	suppression of tumorigenic rates [1, 2] [fold]
C[C@H]1c2cccc(O)c2C(=O)C2=C(O)[C@]3(O)C(=O)C(C(N)=O)=C(O)[C@@H](N(C)C)[C@@H]3[C@@H](O)[C@@H]21 [Dox, doxycycline]	no effect	–	–	–
MST1: serine-threonine kinase MST1 (mammalian sterile STE20-like kinase 1), enforced Dox-inducible HA-tagged expression in tumor cells (protein, UniProt Q13043 1-487, looked up, HA tag, serine-threonine kinase MST1 (mammalian sterile STE20-like kinase 1), enforced Dox-inducible HA-tagged expression in tumor cells) Serine/threonine-protein …: METVQLRNPPRRQLKKLDEDSLTKQPEEVFDVLEKLGEGSYGSVYKAIHKETGQIVAIKQVPVESDLQEIIKEISIMQQCDSPHVVKYYGSYFKNTDLWIVMEYCGAGSVSDIIRLRNKTLTEDEIATILQSTLKGLEYLHFMRKIHRDIKAGNILLNTEGHAKLADFGVAGQLTDTMAKRNTVIGTPFWMAPEVIQEIGYNCVADIWSLGITAIEMAEGKPPYADIHPMRAIFMIPTNPPPTFRKPELWSDNFTDFVKQCLVKSPEQRATATQLLQHPFVRSAKGVSILRDLINEAMDVKLKRQESQQREVDQDDEENSEEDEMDSGTMVRAVGDEMGTVRVASTMTDGANTMIEHDDTLPSQLGTMVINAEDEEEEGTMKRRDETMQPAKPSFLEYFEQKEKENQINSFGKSVPGPLKNSSDWKIPQDGDYEFLKSWTVEDLQKRLLALDPMMEQEIEEIRQKYQSKRQPILDAIEAKKRRQQNF	–	2 out of 10	35	4

— patent US20130143948A1, “MST1 AS A PROGNOSTIC BIOMARKER AND THERAPEUTIC TARGET IN HUMAN CANCER” (CEDARS-SINAI MEDICAL CENTER, priority 2010, published 2013)
